Key:
HeLa Kyoto [1] = experiment: solubility in G1/S (NP-40 vs SDS abundance) (log2 ratio); higher = more soluble; conditions: cell cycle stage: G1/S
HeLa Kyoto [2] = experiment: melting temperature (median over replicates), in situ; higher = more thermally stable
HeLa Kyoto [3] = experiment: solubility change mitosis vs G1/S (difference of NP-40 vs SDS log2 ratios) (log2 ratio difference); higher = more soluble in mitosis
HeLa Kyoto [4] = experiment: thermal stability score vs G1/S (z-score of summed log2 fold changes over temperatures); higher = more thermally stable than in G1/S
[5] = cell cycle stage: early G1 (4.5 h after nocodazole release)
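Throughout, for melting temperature (median over replicates), in situ: HeLa Kyoto cells synchronized by double thymidine or nocodazole block, proteins quantified by TMT10plex mass spectrometry, three independent biological replicates.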
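Throughout, for solubility change mitosis vs G1/S (difference of NP-40 vs SDS log2 ratios): synchronized HeLa Kyoto cells (double thymidine block for G1/S, nocodazole release for mitosis), protein amounts in NP-40 versus SDS lysates quantified by mass spectrometry, three biological replicates.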
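Throughout, for solubility in G1/S (NP-40 vs SDS abundance): HeLa Kyoto cells arrested at G1/S by double thymidine block, proteins quantified by TMT10plex mass spectrometry in mild NP-40 versus SDS extracts, three biological replicates.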
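Throughout, for thermal stability score vs G1/S (z-score of summed log2 fold changes over temperatures): synchronized HeLa Kyoto cells, proteins quantified by TMT10plex mass spectrometry, three biological replicates, mitosis taken 0.5 h after nocodazole release, G1/S directly after double thymidine block.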

| Substance | solubility in G1/S (log2) (HeLa Kyoto [1]) | melting temperature (HeLa Kyoto [2]; cell cycle stage: G1/S) | melting temperature (HeLa Kyoto [2]; cell cycle stage: mitosis) | solubility change mitosis (log2) (HeLa Kyoto [3]) | thermal stability score (HeLa Kyoto [4]; [5]) | thermal stability score (HeLa Kyoto [4]; cell cycle stage: mitosis) |
| --- | --- | --- | --- | --- | --- | --- |
| MAPNIYLVRQRISRLGQRMSGFQINLNPLKEPLGFIKVLEWIASIFAFATCGGFKGQTEIQVNCPPAVTENKTVTATFGYPFRLNEASFQPPPGVNICDVNWKDYVLIGDYSSSAQFYVTFAVFVFLYCIAALLLYVGYTSLYLDSRKLPMIDFVVTLVATFLWLVSTSAWAKALTDIKIATGHNIIDELPPCKKKAVLCYFGSVTSMGSLNVSVIFGFLNMILWGGNAWFVYKETSLHSPSNTSAPHSQGGIPPPTGI [SYPL1] | -0.227 | 56.1 °C | 56.9 °C | 0.0843 | -3.54 | -3.06 |
| MPKAKGKTRRQKFGYSVNRKRLNRNARRKAAPRIECSHIRHAWDHAKSVRQNLAEMGLAVDPNRAVPLRKRKVKAMEVDIEERPKELVRKPYVLNDLEAEASLPEKKGNTLSRDLIDYVRYMVENHGEDYKAMARDEKNYYQDTPKQIRSKINVYKRFYPAEWQDFLDSLQKRKMEVE [NOP16] | -1.15 | 57.3 °C | 54.2 °C | 1.22 | -0.631 | -6.32 |
| CCDC88A | 0.124 | 49 °C | 49 °C | -0.1 | -0.404 | 1.05 |
| MAEPDPSHPLETQAGKVQEAQDSDSDSEGGAAGGEADMDFLRNLFSQTLSLGSQKERLLDELTLEGVARYMQSERCRRVICLVGAGISTSAGIPDFRSPSTGLYDNLEKYHLPYPEAIFEISYFKKHPEPFFALAKELYPGQFKPTICHYFMRLLKDKGLLLRCYTQNIDTLERIAGLEQEDLVEAHGTFYTSHCVSASCRHEYPLSWMKEKIFSEVTPKCEDCQSLVKPDIVFFGESLPARFFSCMQSDFLKVDLLLVMGTSLQVQPFASLISKAPLSTPRLLINKEKAGQSDPFLGMIMGLGGGMDFDSKKAYRDVAWLGECDQGCLALAELLGWKKELEDLVRREHASIDAQSGAGVPNPSTSASPKKSPPPAKDEARTTEREKPQ [SIRT2] | 0.229 | 51.4 °C | 52.5 °C | -0.026 | 0.148 | -0.178 |
| MALLFARSLRLCRWGAKRLGVASTEAQRGVSFKLEEKTAHSSLALFRDDTGVKYGLVGLEPTKVALNVERFREWAVVLADTAVTSGRHYWEVTVKRSQQFRIGVADVDMSRDSCIGVDDRSWVFTYAQRKWYTMLANEKAPVEGIGQPEKVGLLLEYEAQKLSLVDVSQVSVVHTLQTDFRGPVVPAFALWDGELLTHSGLEVPEGL [SPRYD4] | -0.0415 | 53.9 °C | 54.8 °C | -0.14 | -1.47 | -3.25 |
| MEGPGLGSQCRNHSHGPHPPGFGRYGICAHENKELANAREALPLIEDSSNCDIVKATQYGIFERCKELVEAGYDVRQPDKENVSLLHWAAINNRLDLVKFYISKGAVVDQLGGDLNSTPLHWAIRQGHLPMVILLLQHGADPTLIDGEGFSSIHLAVLFQHMPIIAYLISKGQSVNMTDVNGQTPLMLSAHKVIGPEPTGFLLKFNPSLNVVDKIHQNTPLHWAVAAGNVNAVDKLLEAGSSLDIQNVKGETPLDMALQNKNQLIIHMLKTEAKMRANQKFRLWRWLQKCELFLLLMLSVITMWAIGYILDFNSDSWLLKGCLLVTLFFLTSLFPRFLVGYKNLVYLPTAFLLSSVFWIFMTWFILFFPDLAGAPFYFSFIFSIVAFLYFFYKTWATDPGFTKASEEEKKVNIITLAETGSLDFRTFCTSCLIRKPLRSLHCHVCNCCVARYDQHCLWTGRCIGFGNHHYYIFFLFFLSMVCGWIIYGSFIYLSSHCATTFKEDGLWTYLNQIVACSPWVLYILMLATFHFSWSTFLLLNQLFQIAFLGLTSHERISLQKQSKHMKQTLSLRKTPYNLGFMQNLADFFQCGCFGLVKPCVVDWTSQYTMVFHPAREKVLRSV [ZDHHC13] | 0.0826 | 51.6 °C | 51.4 °C | -0.158 | -0.948 | -1.02 |
| MWDQGGQPWQQWPLNQQQWMQSFQHQQDPSQIDWAALAQAWIAQREASGQQSMVEQPPGMMPNGQDMSTMESGPNNHGNFQGDSNFNRMWQPEWGMHQQPPHPPPDQPWMPPTPGPMDIVPPSEDSNSQDSGEFAPDNRHIFNQNNHNFGGPPDNFAVGPVNQFDYQHGAAFGPPQGGFHPPYWQPGPPGPPAPPQNRRERPSSFRDRQRSPIALPVKQEPPQIDAVKRRTLPAWIREGLEKMEREKQKKLEKERMEQQRSQLSKKEKKATEDAEGGDGPRLPQRSKFDSDEEEEDTENVEAASSGKVTRSPSPVPQEEHSDPEMTEEEKEYQMMLLTKMLLTEILLDVTDEEIYYVAKDAHRKATKAPAKQLAQSSALASLTGLGGLGGYGSGDSEDERSDRGSESSDTDDEELRHRIRQKQEAFWRKEKEQQLLHDKQMEEEKQQTERVTKEMNEFIHKEQNSLSLLEAREADGDVVNEKKRTPNETTSVLEPKKEHKEKEKQGRSRSGSSSSGSSSSNSRTSSTSSTVSSSSYSSSSGSSRTSSRSSSPKRKKRHSRSRSPTIKARRSRSRSYSRRIKIESNRARVKIRDRRRSNRNSIERERRRNRSPSRERRRSRSRSRDRRTNRASRSRSRDRRKIDDQRGNLSGNSHKHKGEAKEQERKKERSRSIDKDRKKKDKEREREQDKRKEKQKREEKDFKFSSQDDRLKRKRESERTFSRSGSISVKIIRHDSRQDSKKSTTKDSKKHSGSDSSGRSSSESPGSSKEKKAKKPKHSRSRSVEKSQRSGKKASRKHKSKSRSR [PNISR] | -0.83 | 59.9 °C | 54.5 °C | 0.456 | -6.44 | -8.27 |
| MSGSFELSVQDLNDLLSDGSGCYSLPSQPCNEVTPRIYVGNASVAQDIPKLQKLGITHVLNAAEGRSFMHVNTNANFYKDSGITYLGIKANDTQEFNLSAYFERAADFIDQALAQKNGRVLVHCREGYSRSPTLVIAYLMMRQKMDVKSALSIVRQNREIGPNDGFLAQLCQLNDRLAKEGKLKP [DUSP3] | 0.676 | 50.4 °C | 51 °C | 0.131 | 0.0996 | -0.0543 |
| MSRSAAASGGPRRPERHLPPAPCGAPGPPETCRTEPDGAGTMNKLRQSLRRRKPAYVPEASRPHQWQADEDAVRKGTCSFPVRYLGHVEVEESRGMHVCEDAVKKLKAMGRKSVKSVLWVSADGLRVVDDKTKDLLVDQTIEKVSFCAPDRNLDKAFSYICRDGTTRRWICHCFLALKDSGERLSHAVGCAFAACLERKQRREKECGVTAAFDASRTSFAREGSFRLSGGGRPAEREAPDKKKAEAAAAPTVAPGPAQPGHVSPTPATTSPGEKGEAGTPVAAGTTAAAIPRRHAPLEQLVRQGSFRGFPALSQKNSPFKRQLSLRLNELPSTLQRRTDFQVKGTVPEMEPPGAGDSDSINALCTQISSSFASAGAPAPGPPPATTGTSAWGEPSVPPAAAFQPGHKRTPSEAERWLEEVSQVAKAQQQQQQQQQQQQQQQQQQQQAASVAPVPTMPPALQPFPAPVGPFDAAPAQVAVFLPPPHMQPPFVPAYPGLGYPPMPRVPVVGITPSQMVANAFCSAAQLQPQPATLLGKAGAFPPPAIPSAPGSQARPRPNGAPWPPEPAPAPAPELDPFEAQWAALEGKATVEKPSNPFSGDLQKTFEIEL [NUMBL] | 0.205 | 51.9 °C | 52.3 °C | -0.00185 | 2.8 | 2.05 |
| MAKRSRGPGRRCLLALVLFCAWGTLAVVAQKPGAGCPSRCLCFRTTVRCMHLLLEAVPAVAPQTSILDLRFNRIREIQPGAFRRLRNLNTLLLNNNQIKRIPSGAFEDLENLKYLYLYKNEIQSIDRQAFKGLASLEQLYLHFNQIETLDPDSFQHLPKLERLFLHNNRITHLVPGTFNHLESMKRLRLDSNTLHCDCEILWLADLLKTYAESGNAQAAAICEYPRRIQGRSVATITPEELNCERPRITSEPQDADVTSGNTVYFTCRAEGNPKPEIIWLRNNNELSMKTDSRLNLLDDGTLMIQNTQETDQGIYQCMAKNVAGEVKTQEVTLRYFGSPARPTFVIQPQNTEVLVGESVTLECSATGHPPPRISWTRGDRTPLPVDPRVNITPSGGLYIQNVVQGDSGEYACSATNNIDSVHATAFIIVQALPQFTVTPQDRVVIEGQTVDFQCEAKGNPPPVIAWTKGGSQLSVDRRHLVLSSGTLRISGVALHDQGQYECQAVNIIGSQKVVAHLTVQPRVTPVFASIPSDTTVEVGANVQLPCSSQGEPEPAITWNKDGVQVTESGKFHISPEGFLTINDVGPADAGRYECVARNTIGSASVSMVLSVNVPDVSRNGDPFVATSIVEAIATVDRAINSTRTHLFDSRPRSPNDLLALFRYPRDPYTVEQARAGEIFERTLQLIQEHVQHGLMVDLNGTSYHYNDLVSPQYLNLIANLSGCTAHRRVNNCSDMCFHQKYRTHDGTCNNLQHPMWGASLTAFERLLKSVYENGFNTPRGINPHRLYNGHALPMPRLVSTTLIGTETVTPDEQFTHMLMQWGQFLDHDLDSTVVALSQARFSDGQHCSNVCSNDPPCFSVMIPPNDSRARSGARCMFFVRSSPVCGSGMTSLLMNSVYPREQINQLTSYIDASNVYGSTEHEARSIRDLASHRGLLRQGIVQRSGKPLLPFATGPPTECMRDENESPIPCFLAGDHRANEQLGLTSMHTLWFREHNRIATELLKLNPHWDGDTIYYETRKIVGAEIQHITYQHWLPKILGEVGMRTLGEYHGYDPGINAGIFNAFATAAFRFGHTLVNPLLYRLDENFQPIAQDHLPLHKAFFSPFRIVNEGGIDPLLRGLFGVAGKMRVPSQLLNTELTERLFSMAHTVALDLAAINIQRGRDHGIPPYHDYRVYCNLSAAHTFEDLKNEIKNPEIREKLKRLYGSTLNIDLFPALVVEDLVPGSRLGPTLMCLLSTQFKRLRDGDRLWYENPGVFSPAQLTQIKQTSLARILCDNADNITRVQSDVFRVAEFPHGYGSCDEIPRVDLRVWQDCCEDCRTRGQFNAFSYHFRGRRSLEFSYQEDKPTKKTRPRKIPSVGRQGEHLSNSTSAFSTRSDASGTNDFREFVLEMQKTITDLRTQIKKLESRLSTTECVDAGGESHANNTKWKKDACTICECKDGQVTCFVEACPPATCAVPVNIPGACCPVCLQKRAEEKP [PXDN] | -0.0223 | 54 °C | 54.5 °C | -0.103 | 3.4 | 3.61 |
| MAAVKEPLEFHAKRPWRPEEAVEDPDEEDEDNTSEAENGFSLEEVLRLGGTKQDYLMLATLDENEEVIDGGKKGAIDDLQQGELEAFIQNLNLAKYTKASLVEEDEPAEKENSSKKEVKIPKINNKNTAESQRTSVNKVKNKNRPEPHSDENGSTTPKVKKDKQNIFEFFERQTLLLRPGGKWYDLEYSNEYSLKPQPQDVVSKYKTLAQKLYQHEINLFKSKTNSQKGASSTWMKAIVSSGTLGDRMAAMILLIQDDAVHTLQFVETLVNLVKKKGSKQQCLMALDTFKELLITDLLPDNRKLRIFSQRPFDKLEQLSSGNKDSRDRRLILWYFEHQLKHLVAEFVQVLETLSHDTLVTTKTRALTVAHELLCNKPEEEKALLVQVVNKLGDPQNRIATKASHLLETLLCKHPNMKGVVSGEVERLLFRSNISSKAQYYAICFLNQMALSHEESELANKLITVYFCFFRTCVKKKDVESKMLSALLTGVNRAYPYSQTGDDKVREQIDTLFKVLHIVNFNTSVQALMLLFQVMNSQQTISDRYYTALYRKMLDPGLMTCSKQAMFLNLVYKSLKADIVLRRVKAFVKRLLQVTCQQMPPFICGALYLVSEILKAKPGLRSQLDDHPESDDEENFIDANDDEDMEKFTDADKETEIVKKLETEETVPETDVETKKPEVASWVHFDNLKGGKQLNKYDPFSRNPLFCGAENTSLWELKKLSVHFHPSVALFAKTILQGNYIQYSGDPLQDFTLMRFLDRFVYRNPKPHKGKENTDSVVMQPKRKHFIKDIRHLPVNSKEFLAKEESQIPVDEVFFHRYYKKVAVKEKQKRDADEESIEDVDDEEFEELIDTFEDDNCFSSGKDDMDFAGNVKKRTKGAKDNTLDEDSEGSDDELGNLDDDEVSLGSMDDEEFAEVDEDGGTFMDVLDDESESVPELEVHSKVSTKKSKRKGTDDFDFAGSFQGPRKKKRNLNDSSLFVSAEEFGHLLDENMGSKFDNIGMNAMANKDNASLKQLRWEAERDDWLHNRDAKSIIKKKKHFKKKRIKTTQKTKKQRK [CEBPZ] | -1.9 | 49.8 °C | 50.1 °C | 1.14 | 1.59 | 1.76 |

From the supplement of paper PMC5998384
